Experimental findings from US20050119456A1 (NEW YORK UNIVERSITY, published 2005) are described below.

In this assay the target is T1, GST-SMRT (Hu SMRT(1-900) fused to GST, from pGEX-6p-1) (human, UniProt Q9Y618 1-900).
T1 construct: range 1-900; Expressed in bacteria with IPTG and adsorbed onto glutathione sepharose 4B; also called GST-SMRT agarose; immobilized SMRT; not shown: glutathione S-transferase of the pGEX-6p-1 bacterial expression vector
Briefly: GST pull-down of 35S-labeled in vitro translated C21 fragment. From the text:
FIGS. 15A and 15B show GST-pull-down of in vitro synthesized C21 by SMRT (1-900). Hu SMRT(1-900) cDNA was amplified by PCR and cloned in-frame into pGEX-6p-1 (GST fusion expression vector for bacterial expression). Expression of the GST fusion protein (FIG. 15A) or control (FIG. 15B) was induced with IPTG and the product adsorbed onto glutathione sepharose 4B. hC21 (full-length ORF or fragments lacking the C-terminal half(δ C), the F-box (δ F), the N terminal 40 amino acid (δ N) or a construct lacking both the N-terminus and the F-box (δN+F) was cloned in-frame into pCDNA3 vector with a Flag tag at the N-terminus. The plasmid, linearized with EcoRI, was purified and used as a template to label the product. For the pull-down experiments, 5 ng of ³⁵S-labeled hC21 protein(s) and 20 ul of GST agarose or GST-SMRT agarose were mixed. All four C21 constructs labeled with equal efficiency and the same quantity of labeled protein were used in each experiment. The denatured proteins were then electrophoresed through a 10% SDS PAGE gel.
Labeled C21 prepared by in vitro translation using 35S methionine can be “pulled-down” by immobilized SMRT. […] A fragment (21[δC]) consisting only of the first 230 amino acids (i.e., lacking all of the WD40 repeats and the carboxyl terminus) was as efficient as the full-length protein in reacting with SMRT.

T1 sequence (Q9Y618 1-900): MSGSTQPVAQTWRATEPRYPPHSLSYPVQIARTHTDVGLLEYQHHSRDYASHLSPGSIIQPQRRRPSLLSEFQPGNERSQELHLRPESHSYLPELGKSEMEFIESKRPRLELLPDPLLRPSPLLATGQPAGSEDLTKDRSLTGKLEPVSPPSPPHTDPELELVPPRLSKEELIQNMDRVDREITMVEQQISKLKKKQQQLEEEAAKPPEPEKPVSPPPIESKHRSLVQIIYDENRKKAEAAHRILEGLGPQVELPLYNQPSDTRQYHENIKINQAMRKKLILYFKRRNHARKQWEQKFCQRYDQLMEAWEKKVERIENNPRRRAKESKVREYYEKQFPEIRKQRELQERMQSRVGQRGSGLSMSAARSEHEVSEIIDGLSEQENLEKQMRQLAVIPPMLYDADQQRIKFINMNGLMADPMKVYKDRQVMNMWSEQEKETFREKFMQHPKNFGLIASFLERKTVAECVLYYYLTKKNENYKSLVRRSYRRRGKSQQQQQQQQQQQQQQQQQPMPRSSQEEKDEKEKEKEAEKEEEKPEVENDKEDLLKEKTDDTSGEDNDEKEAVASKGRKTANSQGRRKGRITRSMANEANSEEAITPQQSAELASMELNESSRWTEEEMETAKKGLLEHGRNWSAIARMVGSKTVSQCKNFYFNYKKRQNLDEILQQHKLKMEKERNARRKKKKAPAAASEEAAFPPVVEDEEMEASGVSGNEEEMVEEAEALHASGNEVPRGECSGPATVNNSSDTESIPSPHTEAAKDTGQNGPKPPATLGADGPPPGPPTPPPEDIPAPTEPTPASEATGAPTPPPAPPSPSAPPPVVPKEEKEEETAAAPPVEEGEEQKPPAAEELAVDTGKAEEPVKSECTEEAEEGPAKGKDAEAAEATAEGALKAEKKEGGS

B1: 21[5N] (other)
chain: GALVPPAALISIIQKGLQYVEAEVSINEDGTLFDGRPIESLSLIDAVMPDVVQTRQQAYRDKLAQQQAAAAAAAAAAASQQGSAKNGENTANGEENGAHTIANNHTDMMEVDGDVEIPPNKAVVLRGHESEVFICAWNPVSDLLASGSGDSTARIWNLSENSTSGSTQLVLRHCIREGGQDVPSNKDVTSLDWNSEGTLLATGSYDGFARIWTKDGNLASTLGQHKGPIFALKWNKKGNFILSAGVDKTTIIWDAHTGEAKQQFPFHSAPALDVDWQSNNTFASCSTDMCIHVCKLGQDRPIKTFQGHTNEVNAIKWDPTGNLLASCSDDMTLKIWSMKQDNCVHDLQQHNKEIYTIKWSPTGPGTNNPNANLMLASASFDSTVRLWDVDRGICIHTLTKHQEPVYSVAFSPDGRYLASGSFDKCVHIWNTQTGALVHSYRGTGGIFEVCWNAAGDKVGASASDGSVCVLDLRK
modifications: 35S-methionine label
notes: also called δ N; hC21 fragment lacking the N terminal 40 amino acid; not shown: Flag tag at the N-terminus
On to B1, for which the binding result is on record as “no binding”.
